Test results taken from publication PMC3478187, “PEGylation, increasing specific activity and multiple dosing as strategies to improve the risk-benefit profile of targeted radionuclide therapy with ^177Lu-DOTA-bombesin analogues” (EJNMMI Research, 2012).
Read-outs that look alike come from different tables or passages of the source.

How the values were obtained:
BN2/GRP receptors = target: T1, BN2/GRP receptors (Homo sapiens, UniProt P30550); assay: Apparent receptor affinity (IC50), displacement of ^99mTc-BN(7-14) on whole PC-3 cells; format: binding
T1 construct: Since IC50 determination was done on whole PC-3 cells; endogenous in cells; host or cells: PC-3 cells (human prostate carcinoma)
Procedure: Material & Methods: PC-3 cells at confluence were placed in 48-well plates and left to attach overnight. […] After 1 h incubation at 37°C, the cells were twice washed with cold PBS and solubilized by adding 400 μl (2 x) of 1 N NaOH at 37°C. The bound radioactivity was measured in the gamma counter. The experiments were performed in triplicate.

[1] = Biodistribution in nude mice bearing PC-3 tumour xenografts; details: female, CD-1 nu/nu, mouse, in vivo, iv, total radioactivity; for tissue uptake at 1 h / tissue uptake at 24 h: 0.3 MBq/0.075 nmol i.v., mean ± SD
Procedure: All animal experiments were conducted in compliance with the Swiss animal protection laws and with the ethical principles and guidelines for scientific animal experimentation established by the Swiss Academy of Natural Sciences. Biodistribution studies were performed with 6- to 8-week-old female CD-1 nu/nu mice (20 to 25 g) purchased from Charles River Laboratories (Sulzfeld, Germany). For the induction of tumour xenografts, each mouse received subcutaneously 8 × 10^6 PC-3 cells in 150 μl culture medium without supplements. The tumours were allowed to grow for at least 3 weeks. On the day of the experiment, the mice (3 to 6 per group) received the radioactive conjugates intravenously. […] Receptor-blocking studies were performed using 100 μg of unlabelled BN(1–14) co-injected with the corresponding radiolabelled BN analogue. At 1, 4 and 24 h post injection (p.i.), the animals were euthanised and dissected. Blood, tumours and various healthy tissues and organs were collected, weighed and examined for radioactivity. Results are expressed as percentage of injected dose per gram of tissue (% ID/g).

[2] = Octanol/PBS partition coefficient (log D); format: physicochemical; details: shake-flask 1-octanol/PBS (1:1), pH 7.4, 30 kBq, vortex 1 min, centrifuged, gamma counter, sextuplicate, mean ± SD
Procedure: Material & Methods: The octanol/PBS partition coefficients were determined at pH 7.4. Five μl containing 30 kBq of the radiolabelled compounds in phosphate buffered saline (PBS) were added to a vial which contained 1.2 ml of 1-octanol and PBS (1:1). After vortexing for 1 min, the vial was centrifuged (5 min, 10 000 rpm) to ensure complete separation of layers. Then, 40 μl of each layer were taken in a preweighed vial and measured in a gamma counter (Packard Canberra Cobra II, Meriden, USA). Counts per weight unit of sample were calculated and log D values were determined as described by Pillarsetty et al. using the formula log10D=log10 (counts in 1 g of octanol/counts in 1 g of PBS). The experiments were performed in sextuplicate.

[3] = Metabolic stability in human plasma; format: in vitro ADME; details: 37 °C
Procedure: The labelled analogues were incubated with human plasma (final concentration, 10 MBq/0.6 ml) at 37 °C for various time intervals up to 12 days. After incubation, proteins were precipitated with acetonitrile/ethanol (1:1) and TFA (0.1%) and then centrifuged. The supernatant was analysed with RP-high-performance liquid chromatography (HPLC) equipped with a radioactivity detector. […] The experiments were performed two times.

[4] = cited from earlier work
[5] = cited from earlier work; for GI uptake: HPLC purified
Procedure: The biodistribution data, in which 0.002 nmol of ^177Lu-AMBA and ^177Lu-DOTA-8-AOC-BN(7–14) (HPLC purified) was injected per mouse [23], and the data of ^177Lu-DOTA-PESIN (0.2 nmol peptide) [25] were compared with our biodistribution data, in which 0.075 nmol of the ^177Lu-labelled BN analogues were injected. This 0.075 nmol is the nearest possible approximation to the 0.002 nmol without HPLC purification, which is desired in clinics.

PC-3 xenografts = details: ref [24]; cited from earlier work
Source text: Comparing our study with the therapy studies with ^177Lu-AMBA [23], ^177Lu-DOTA-PESIN [25] (2 × 28 MBq, 0.2 nmol) and ^177Lu-DOTA-8-AOC-BN(7–14), we found the tumour growth inhibition with our PEGylated BN analogue to be lower than with AMBA (approximately 73% vs. approximately 82%) but higher than with DOTA-PESIN (approximately 73% vs. approximately 45%) and roughly the same as with ^177Lu-DOTA-8-AOC-BN(7–14) (approximately 73% vs. approximately 79%) 3 weeks after the first dose. However, such a comparison is not fully conclusive since these therapy studies differ in tumour size at ...

[6] = 1 h p.i., 0.002 nmol per mouse, ref [23]
[7] = 24 h p.i., 0.002 nmol per mouse, ref [23]

T1 sequence (P30550 whole entry): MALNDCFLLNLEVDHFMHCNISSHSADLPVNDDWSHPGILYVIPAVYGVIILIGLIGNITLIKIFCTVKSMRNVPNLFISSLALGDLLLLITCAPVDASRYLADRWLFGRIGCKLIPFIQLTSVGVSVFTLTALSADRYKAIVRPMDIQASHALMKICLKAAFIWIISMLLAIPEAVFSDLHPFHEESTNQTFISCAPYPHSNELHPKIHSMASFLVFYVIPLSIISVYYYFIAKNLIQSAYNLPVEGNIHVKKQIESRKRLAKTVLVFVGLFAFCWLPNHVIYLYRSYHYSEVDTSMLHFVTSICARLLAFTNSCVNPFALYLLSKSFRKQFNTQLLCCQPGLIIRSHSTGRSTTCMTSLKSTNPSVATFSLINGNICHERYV

Compound: CCCC[C@H](NC(=O)[C@H](CC1CCCCC1)NC(=O)[C@H](Cc1c[nH]cn1)NC(=O)CNC(=O)[C@@H](NC(=O)[C@H](C)NC(=O)[C@H](Cc1c[nH]c2ccccc12)NC(=O)[C@H](CCC(N)=O)NC(=O)CCNC(=O)CCNC(=O)CC(CCCCN)NC(=O)CN1CCN(CC(=O)O)CCN(CC(=O)O)CCN(CC(=O)O)CC1)C(C)C)C(N)=O (stereo partly drawn) [DOTA-Lys-BN, DOTA-β^3hLys-βAla-βAla-Gln^7-Trp^8-Ala^9-Val^10-Gly^11-His^12-Cha^13-Nle^14-NH2]
- IC50 (BN2/GRP receptors): 2.03 ± 0.42 nM

Compound: CCCC[C@H](NC(=O)[C@H](CC1CCCCC1)NC(=O)[C@H](Cc1c[nH]cn1)NC(=O)CNC(=O)[C@@H](NC(=O)[C@H](C)NC(=O)[C@H](Cc1c[nH]c2ccccc12)NC(=O)[C@H](CCC(N)=O)NC(=O)CCNC(=O)CCNC(=O)CC(CCCCN)NC(=O)CN1CCN(CC(=O)O)CCN(CC(=O)O)CCN(CC(=O)O)CC1)C(C)C)C(N)=O (stereo partly drawn) [^177Lu-DOTA-Lys-BN, metal not drawn]
- tissue uptake at 1 h ([1]; 1 h p.i. blocked, 100 μg unlabelled BN(1–14) co-injected, n = 3 to 4, read-out: Colon uptake, blocked): 0.36 ± 0.07 %ID/g
- tissue uptake at 1 h ([1]; 1 h p.i. blocked, 100 μg unlabelled BN(1–14) co-injected, n = 3 to 4, read-out: Pancreas uptake, blocked): 0.49 ± 0.22 %ID/g
- tissue uptake at 1 h ([1]; 1 h p.i. blocked, 100 μg unlabelled BN(1–14) co-injected, n = 3 to 4, read-out: Tumour uptake, blocked): 0.55 ± 0.03 %ID/g
- tissue uptake at 1 h ([1]; 1 h p.i., n = 3 to 4, read-out: Blood uptake): 0.24 ± 0.07 %ID/g
- tissue uptake at 1 h ([1]; 1 h p.i., n = 3 to 4, read-out: Bone uptake): 0.36 ± 0.24 %ID/g
- tissue uptake at 1 h ([1]; 1 h p.i., n = 3 to 4, read-out: Colon uptake): 1.64 ± 0.4 %ID/g
- tissue uptake at 1 h ([1]; 1 h p.i., n = 3 to 4, read-out: Heart uptake): 0.14 ± 0.06 %ID/g
- tissue uptake at 1 h ([1]; 1 h p.i., n = 3 to 4, read-out: Kidneys uptake): 2.86 ± 0.63 %ID/g
- tissue uptake at 1 h ([1]; 1 h p.i., n = 3 to 4, read-out: Liver uptake): 0.26 ± 0.09 %ID/g
- tissue uptake at 1 h ([1]; 1 h p.i., n = 3 to 4, read-out: Lung uptake): 0.36 ± 0.08 %ID/g
- tissue uptake at 1 h ([1]; 1 h p.i., n = 3 to 4, read-out: Muscle uptake): 0.2 ± 0.24 %ID/g
- tissue uptake at 1 h ([1]; 1 h p.i., n = 3 to 4, read-out: Pancreas uptake): 8.68 ± 1.95 %ID/g
- tissue uptake at 1 h ([1]; 1 h p.i., n = 3 to 4, read-out: Small intestine uptake): 1.38 ± 0.41 %ID/g
- tissue uptake at 1 h ([1]; 1 h p.i., n = 3 to 4, read-out: Spleen uptake): 0.42 ± 0.12 %ID/g
- tissue uptake at 1 h ([1]; 1 h p.i., n = 3 to 4, read-out: Stomach uptake): 0.72 ± 0.19 %ID/g
- tissue uptake at 1 h ([1]; 1 h p.i., n = 3 to 4, read-out: Tumour uptake): 1.88 ± 0.47 %ID/g
- tissue to tissue ratio at 24 h ([1]; 24 h p.i., 0.075 nmol, read-out: tumour-to-liver ratio): 5.9
- tissue uptake at 24 h ([1]; 24 h p.i., n = 3 to 4, read-out: Bone uptake): 0.02 ± 0.01 %ID/g
- tissue uptake at 24 h ([1]; 24 h p.i., n = 3 to 4, read-out: Colon uptake): 0.36 ± 0.09 %ID/g
- tissue uptake at 24 h ([1]; 24 h p.i., n = 3 to 4, read-out: Heart uptake): 0.01 ± 0.01 %ID/g
- tissue uptake at 24 h ([1]; 24 h p.i., n = 3 to 4, read-out: Kidneys uptake): 1.41 ± 0.14 %ID/g
- tissue uptake at 24 h ([1]; 24 h p.i., n = 3 to 4, read-out: Liver uptake): 0.09 ± 0.02 %ID/g
- tissue uptake at 24 h ([1]; 24 h p.i., n = 3 to 4, read-out: Lung uptake): 0.02 ± 0.01 %ID/g
- tissue uptake at 24 h ([1]; 24 h p.i., n = 3 to 4, read-out: Muscle uptake): 0.01 %ID/g
- tissue uptake at 24 h ([1]; 24 h p.i., n = 3 to 4, read-out: Pancreas uptake): 4.27 ± 0.85 %ID/g
- tissue uptake at 24 h ([1]; 24 h p.i., n = 3 to 4, read-out: Small intestine uptake): 0.16 ± 0.03 %ID/g
- tissue uptake at 24 h ([1]; 24 h p.i., n = 3 to 4, read-out: Spleen uptake): 0.18 ± 0.04 %ID/g
- tissue uptake at 24 h ([1]; 24 h p.i., n = 3 to 4, read-out: Stomach uptake): 0.1 ± 0.02 %ID/g
- tissue uptake at 24 h ([1]; 24 h p.i., n = 3 to 4, read-out: Tumour uptake): 0.54 ± 0.3 %ID/g
- logD [2]: -2.18 ± 0.07
- remaining at 120 h, 10 MBq/0.6 ml ([3]; 10 MBq/0.6 ml, 5 days, precipitation acetonitrile/ethanol (1:1) + 0.1% TFA, RP-HPLC radioactivity detector, performed two times, mean ± SD, read-out: remained intact after 5 days): 13.8 ± 5.7%
- half-life at 10 MBq/0.6 ml ([3]; 10 MBq/0.6 ml, up to 12 days, RP-HPLC radioactivity detector, performed two times, mean ± SD): 28.8 h
- half-life (t1/2) in human plasma ([3]; in vitro, as printed in hours in the discussion): 28.8 h

Compound: DO3A-CH2CO-8-aminooctanoyl-Gln-Trp-Ala-Val-Gly-His-Leu-Met-NH2 [^177Lu-AMBA]
- half-life (t1/2) in human plasma ([4]; ref [23]): 38.8 h
- GI uptake [5, 6]: 11.2 %ID
- tumour uptake [5, 6]: 6.35 ± 2.23 % ID/g
- GI uptake [5, 7]: 5.8 % ID

Compound: DOTA-8-AOC-BN(7–14)NH2 [^177Lu-DOTA-8-AOC-BN(7–14)]
- tumour growth inhibition 3 weeks after the first dose (PC-3 xenografts): approximately 79%
- GI uptake [5, 6]: 9.7 %ID
- tumour uptake [5, 6]: 2.84 ± 1.65 % ID/g
- GI uptake [5, 7]: 1.7 % ID

Compound: DOTA-15-amino-4,7,10,13-tetraoxapentadecanoic acid-Gln-Trp-Ala-Val-Gly-His-Leu-Met-NH2 [^177Lu-DOTA-PESIN]
- half-life (t1/2) in human plasma ([4]; ref [25]): 8.4 h
- kidney uptake ([5]; 1 h p.i., 0.2 nmol peptide, Gelofusine and polyglutamic acid co-administered, ref [25]): 3.8 ± 0.34 %ID/g
- tumour uptake ([5]; 1 h p.i., 0.2 nmol peptide, ref [25]): 11.6 ± 1.4 %ID/g
